According to patent US20150353950A1, “TRANSGENIC PLANTS” (Durham University, priority 2012, published 2015):
Blank lines part the entries; values can stand above or below the molecule they belong to.

Experiments:
SUMO1 = biological target: T1, SUMO1 (Arabidopsis thaliana, UniProt P55852); assay: Far-western / peptide array of GID1 SIM peptides probed with SUMO1; type: binding; settings: for SIM-SUMO1 interaction (far-western): 1 μg peptide spotted on PVDF, probed with His:proAtSUMO1 (10 μg/ml); for interaction with SUMO1 (peptide array): peptide arrays of GID1 SIMs
T1 construct: His (N); made in house; host or cells: E. coli
Description: FIGS. 9A-C. GID1a contains a functional SIM motif in the N-terminal region. a, amino acid positions of two putative SIMs (SUMO interacting motifs) in the GID1a N-terminal domain (SEQ ID NO: 59). Lower panel, far-western assays of two peptides corresponding to SIM A (SEQ ID NO: 60) and SIM B (SEQ ID NO: 58). […] Number indicates molecular mass (kDa). Non-transgenic, wild-type extracts (wt) were used as a negative control. c, mean root growth of 10 days old seedlings in the presence of 100 mM NaCl expressed as a inhibition (%) relatively to the untreated controls. Error bar=s.e.m. n=16.
Peptides corresponding to the putative SIMs in GID1 were purchased from Cambridge Research Biochemicals. 1 μg of each peptide was spotted on a PVDF membrane. Membranes were washed in 100% Ethanol, equilibrated in TBST (25 mM Tris HCl, pH 8.0, 150 mM NaCl, 0.05% Tween 20) and blocked in TBST-Milk 5%. Peptides were probed overnight at 4° C. with recombinant His:proAtSUMO1 (10 μg/ml), washed and subsequently probed with SUMO1 antibodies for standard chemoluminescence-based detection.

[1] = biological target: T2, SUMOylated GFP:RGA (plant-derived)
T2 chain 1: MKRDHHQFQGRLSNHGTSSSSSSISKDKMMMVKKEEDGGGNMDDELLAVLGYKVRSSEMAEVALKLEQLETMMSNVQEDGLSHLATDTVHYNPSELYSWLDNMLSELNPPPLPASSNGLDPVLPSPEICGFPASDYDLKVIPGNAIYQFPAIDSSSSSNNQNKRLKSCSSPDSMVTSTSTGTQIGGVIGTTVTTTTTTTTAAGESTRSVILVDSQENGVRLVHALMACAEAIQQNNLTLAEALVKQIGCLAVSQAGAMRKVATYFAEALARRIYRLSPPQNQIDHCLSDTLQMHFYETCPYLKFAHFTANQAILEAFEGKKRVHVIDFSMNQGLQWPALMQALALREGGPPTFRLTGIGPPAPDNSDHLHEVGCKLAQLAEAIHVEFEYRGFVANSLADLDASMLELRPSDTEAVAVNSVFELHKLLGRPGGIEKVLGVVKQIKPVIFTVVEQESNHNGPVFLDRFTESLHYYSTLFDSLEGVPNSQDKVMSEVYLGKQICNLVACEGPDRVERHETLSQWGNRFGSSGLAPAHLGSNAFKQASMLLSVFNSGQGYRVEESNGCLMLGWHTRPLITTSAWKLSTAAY
T2 chain 2: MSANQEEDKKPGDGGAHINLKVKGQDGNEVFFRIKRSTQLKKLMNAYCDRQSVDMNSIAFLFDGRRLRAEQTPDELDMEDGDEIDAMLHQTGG

GID1a [2] = biological target: T3, GID1a (Arabidopsis thaliana, UniProt Q9MAA7); assay: SPR (Biacore 2000) on immobilised GID1a; type: binding
T3 construct: The GID1a ORF was amplified by PCR from whole cDNAs from seedlings with oligos LC73 and LC74; made in house; host or cells: E. coli
T3 sequence (Q9MAA7 1-345): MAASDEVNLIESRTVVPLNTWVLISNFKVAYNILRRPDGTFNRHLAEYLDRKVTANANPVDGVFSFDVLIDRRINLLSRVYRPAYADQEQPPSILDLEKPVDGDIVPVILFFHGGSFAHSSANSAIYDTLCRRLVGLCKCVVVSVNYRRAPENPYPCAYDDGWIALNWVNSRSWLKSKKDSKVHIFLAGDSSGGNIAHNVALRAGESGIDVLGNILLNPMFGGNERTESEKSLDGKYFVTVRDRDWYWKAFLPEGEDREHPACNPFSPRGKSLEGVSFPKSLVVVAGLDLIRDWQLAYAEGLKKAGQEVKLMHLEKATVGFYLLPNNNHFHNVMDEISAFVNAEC
Description: FIG. 17. SUMO inhibits GID1a binding to RGA-DELLA protein Interaction between RGA alone with GID1a (red) and, RGA and SUMO1 (AtS1, blue) with GID1a both in the presence of GA3. […] Method: SPR was carried out on a Biacore 2000 instrument at 25° C. Purified GID1a was amine-coupled to a CM5 sensor chip (GE Healthcare). Flow cell 1 was blocked using ethanolamine and used as reference. Approx 500 RU of GID1a was bound to flow cells 2 and 3. All binding assays were carried out in HBS-EP buffer (10 mM HEPES pH 7.5, 150 mM NaCl, 1 mM EDTA, 1 mM DTT, 0.005% P20) at a flow rate of 20 μl/min using 180 second injections followed by 180 s of dissociation in HBS-EP. Each condition was run in duplicate using proteins at 100 μg/ml in HBS-EP (containing 100 μM GA3 as appropriate). Regeneration used 10 mM glycine pH 1.5 at 30 μl/min for 30 s.
FIGS. 18A and B. GID1a—SUMO Interaction Data Sensorgram of interaction between SUMO1 (AtS1) with GID1a.

GID1a [3] = biological target: T3, GID1a; assay: GST pull down assay with GST:GID1a; type: binding; settings: presence or absence of GA3 (10 μM)
Description: FIGS. 4A-F. SUMOylated DELLA binds GID1 independently from GA. a, crossspecies alignment of SIM B in the GID1 protein amino terminal extension (grey). Alignment discloses SEQ ID NOS 50-55, respectively, in order of appearance. b, GST pull down assay between His:AtSUMO1 and GST:GID1a or GST in the presence (+) or absence (−) of GA3 (10 μM). Asterisk indicates a cross-reacting band. c, GST pull down assay between plant-derived GFP:RGA proteins with recombinant GST:GID1a or GST. d, mean germination rates (percentage of visible green cotyledons) of wild type (wt), ots1 ots2 double mutants and transgenic lines (T4). n=40-80 for each treatment/genotype combination. Error bar=s.d. of three biological replicates. e, images of NaCl-grown seedlings. Bar=1 cm f, model for the SUMOylation-dependent DELLA accumulation. For recombinant proteins, affinity purified GST:GID1a (0.1 μg) or GST were mixed with His:AtSUMO1 (0.1 μg) and incubated in 1× reaction buffer (Gamborg's B5—minimal organics, 50 mM NaCl, 0.05% Igepal CA-630, 1 mM DTT, 50 mM Tris HCl, pH 7.5). GA3 was added at a final concentration of 10 μM. Proteins were pulled-down using the μMACS GST Isolation Kit, according to the manufacturers' instruction (Miltenyi biotech). […]

T1 sequence (P55852 whole entry): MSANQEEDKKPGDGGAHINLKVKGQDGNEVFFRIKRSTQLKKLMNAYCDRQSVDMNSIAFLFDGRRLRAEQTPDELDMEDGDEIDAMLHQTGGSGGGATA

SIM-SUMO1 interaction (far-western) (SUMO1): strongly reduced SIM-SUMO1 interaction | interaction with SUMO1 (peptide array) (SUMO1): reduction in interaction
Molecule: SIM B V22A: SIM B peptide with substitution of a hydrophobic amino acid for an alanine residue (VVPLNTWALISN)

SIM-SUMO1 interaction (far-western) (SUMO1): Binding between the SIM and SUMO1 occurs | interaction with SUMO1 (peptide array) (SUMO1): shown to be a genuine SIM
Molecule: SIM B: peptide corresponding to putative SUMO interacting motif B in the GID1a N-terminal domain (SEQ ID NO: 58) (VVPLNTWVLISN; listed as Arabidopsis thaliana)

B1: His:OTS1 (protein)
chain: MTKRKKEVIDVDCSEKKDFVIDWSSAMDKEDEVPELEIVNTTKPTPPPPPTFFSDDQTDSPKLLTDRDLDEQLERKKAILTLGPGLPDKGEKIRLKIADLEEEKQRRVLEGSKMEVDRSSKVVSSTSSGSDVLPQGNAVSKDTSRGNADSKDTSRQGNADSKEVSRSTFSAVFSKPKTDSQSKKAFGKELEDLGCERRKHKAGRKPVTRLSNGWRLLPDVGKAEHSAKQFDSGLKESKGNKKSKEPYGKKRPMESSTYSLIDDDDDDDDDDDNDTSGHETPREWSWEKSPSQSSRRRKKSEDTVINVDEEEAQPSTVAEQAAELPEGLQEDICYPTRDDPHFVQVCLKDLECLAPREYLTSPVMNFYMRFLQQQISSSNQISADCHFFNTYFYKKLSDAVTYKGNDKDAFFVRFRRWWKGIDLFRKAYIFIPIHEDLHWSLVIVCIPDKKDESGLTILHLDSLGLHSRKSIVENVKRFLKDEWNYLNQDDYSLDLPISEKVWKNLPRRISEAVVQVPQQKNDFDCGPFVLFFIKRFIEEAPQRLKRKDLGMFDKKWFRPDEASALRIKIRNTLIELFRVSDQTE
in vitro deSUMOylation of immunoprecipitated GFP:RGA (anti-SUMO1 immunoblot) [1]: dramatic reduction of the higher molecular weight, anti-SUMO1 cross-reacting bands only in the tubes containing wild-type OTS1

B2: AtS1: Arabidopsis small ubiquitin-like modifier SUMO1, recombinant (protein)
chain: T2 chain 2
binding of AtS1 to GID1a (SPR sensorgram) (GID1a [2]; 25° C., HBS-EP buffer, proteins at 100 μg/ml): binding and saturation of AtS1 to GID1a followed by disassociation | effect on RGA binding to GID1a (SPR combined response) (GID1a [2]; RGA and AtS1 together, in the presence of GA3 (100 μM)): combined response (blue) is reduced in the presence of AtS1 | binding to GST:GID1a (GST pull down) (GID1a [3]): can bind to SUMO1 from Arabidopsis in a GA-independent manner

B3: SUMOylated RGA: plant-derived SUMOylated form of GFP:RGA DELLA protein (protein)
chain 1: T2 chain 1
chain 2: T2 chain 2
modifications: left off: large carriers
notes: plant-derived SUMOylated form of GFP:RGA DELLA protein
binding to GST:GID1a (GST pull down) (GID1a [3]): could bind to GST:GID1a even in the absence of GA
